These results are taken from patent US20040077046.

For this data set, the target named is 3H-acetylated histone H4 peptide ([3H]-Ac(H41-24)).

B1: C-terminally flag epitope-tagged HDAC4 (protein)
chain: MSSQSHPDGLSGRDQPVELLNPARVNHMPSTVDVATALPLQVAPSAVPMDLRLDHQFSLPVAEPALREQQLQQELLALKQKQQIQRQILIAEFQRQHEQLSRQHEAQLHEHIKQQQEMLAMKHQQELLEHQRKLERHRQEQELEKQHREQKLQQLKNKEKGKESAVASTEVKMKLQEFVLNKKKALAHRNLNHCISSDPRYWYGKTQHSSLDQSSPPQSGVSTSYNHPVLGMYDAKDDFPLRKTASEPNLKLRSRLKQKVAERRSSPLLRRKDGPVVTALKKRPLDVTDSACSSAPGSGPSSPNNSSGSVSAENGIAPAVPSIPAETSLAHRLVAREGSAAPLPLYTSPSLPNITLGLPATGPSAGTAGQQDAERLTLPALQQRLSLFPGTHLTPYLSTSPLERDGGAAHSPLLQHMVLLEQPPAQAPLVTGLGALPLHAQSLVGADRVSPSIHKLRQHRPLGRTQSAPLPQNAQALQHLVIQQQHQQFLEKHKQQFQQQQLQMNKIIPKPSEPARQPESHPEETEEELREHQALLDEPYLDRLPGQKEAHAQAGVQVKQEPIESDEEEAEPPREVEPGQRQPSEQELLFRQQALLLEQQRIHQLRNYQASMEAAGIPVSFGGHRPLSRAQSSPASATFPVSVQEPPTKPRFTTGLVYDTLMLKHQCTCGSSSSHPEHAGRIQSIWSRLQETGLRGKCECIRGRKATLEELQTVHSEAHTLLYGTNPLNRQKLDSKKLLGSLASVFVRLPCGGVGVDSDTIWNEVHSAGAARLAVGCVVELVFKVATGELKNGFAVVRPPGHHAEESTPMGFCYFNSVAVAAKLLQQRLSVSKILIVDWDVHHGNGTQQAFYSDPSVLYMSLHRYDDGNFFPGSGAPDEVGTGPGVGFNVNMAFTGGLDPPMGDAEYLAAFRTVVMPIASEFAPDVVLVSSGFDAVEGHPTPLGGYNLSARCFGYLTKQLMGLAGGRIVLALEGGHDLTAICDASEACVSALLGNELDPLPEKVLQQRPNANAVRSMEKVMEIHSKYWRCLQRTTSTAGRSLIEAQTCENEEAETVTAMASLSVGVKPAEKRPDEEPMEEEPPL
On to B1, for which the “in vitro histone deacetylase assay (release of 3H-acetate from the peptide by immunoprecipitated enzyme)” value was “HDAC9 could deacetylate the histone peptide substrate at a level that was equivalent to UDAC3 and HDAC4”.

B2: C-terminally flag epitope-tagged HDAC3 (protein)
chain: MAKTVAYFYDPDVGNFHYGAGHPMKPHRLALTHSLVLHYGLYKKMIVFKPYQASQHDMCRFHSEDYIDFLQRVSPTNMQGFTKSLNAFNVGDDCPVFPGLFEFCSRYTGASLQGATQLNNKICDIAINWAGGLHHAKKFEASGFCYVNDIVIGILELLKYHPRVLYIDIDIHHGDGVQEAFYLTDRVMTVSFHKYGNYFFPGTGDMYEVGAESGRYYCLNVPLRDGIDDQSYKHLFQPVINQVVDFYQPTCIVLQCGADSLGCDRLGCFNLSIRGHGECVEYVKSFNIPLLVLGGGGYTVRNVARCWTYETSLLVEEAISEELPYSEYFEYFAPDFTLHPDVSTRIENQNSRQYLDQIRQTIFENLKMLNHAPSVQIHDVPADLLTYDRTDEADAEERGPEENYSRPEAPNEFYDGDHDNDKESDVEI
For B2, the “in vitro histone deacetylase assay (release of 3H-acetate from the peptide by immunoprecipitated enzyme)” value was “HDAC9 could deacetylate the histone peptide substrate at a level that was equivalent to UDAC3 and HDAC4”.
